Laboratory results from the nanobody polyreactivity screen of Harvey et al. (2022).

Assay: yeast display, Sf9 membrane polyspecificity reagent, FACS + sequencing; frameworks hold sequencing errors
Method in brief: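 After 36–48 hours of galactose induction, yeast (Saccharomyces cerevisiae BJ5465) displaying a synthetic nanobody library were stained at 4 °C for 1 hour with 10% biotinylated, detergent-solubilized Sf9 membrane reagent. Streptavidin microbeads enriched the stained cells before FACS sorting into low and high (top ~1%) gates on anti-HA and streptavidin fluorescence. Each clone's polyreactivity label reflects its gate of origin.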
For “QVQLVESGGGLVQAGGSLRLSCAASGSTFSDNAMGWYRQAPGKERELVAAITSGGSTYYADSVKGRFTISRDNAKNTVYLQMNSLKPEDTAVYYCAADYWGQGTQVTVSS”, the “polyreactivity (PSR sort gate)” value was “low polyreactivity”.
For “QVQLQESGGGLVQAGGSLRLSCAASGSIFDGFNMGWYRQAPGKEREFVAAISYGASTYYADSVKGRFTVSRDNAKNSVYLQMNSLKPEDTAVYYCAVYDELYHVLVYWGRGTQVTVSS”, the “polyreactivity (PSR sort gate)” value was “low polyreactivity”.
For “QVQLVESGGGLVQAGGSLRLSCAASGSTFTSYVMGWYRQAPGKEREFVAAITSSGGDTYYADSVKGRFTISRDNAKNTVYVQMNSLKPEDTEVYYCATRSYYRSSYYRNRYPYDYWGQGTLVTVSS”, the “polyreactivity (PSR sort gate)” value was “low polyreactivity”.
With “QFHLVESCGGLVQAGGSLRLSCAASGIIFSTYFMGWYIQAPGKERELVAAISSRGFSTYYADSVKGRFTISRDNAKKTVYLQMNSLIPEDTAVYYCAARYYYSRSRLYYYWGQGTQVTVSS” the “polyreactivity (PSR sort gate)” value was “high polyreactivity”.
In the case of “QVQLVESGGGLVQAGGSLRLSCAASGYIFVYYAMGWYRQAPGKEREMVAAISSSGDTTYYADSVKGRFTISRDNAKNTVYLQMNSLKPEDTAVYYCAARVRGYSHASNYYWGQGTQVTVSS”, the “polyreactivity (PSR sort gate)” value was “high polyreactivity”.
With “QVQLVESGGGLVQAGGSLRLSCAASGSIFKIYAKGWYRQAPGKERELVASITGSGGSTYYADSVKGRFTISRDNAKNTVYLQMNSLKPEDTAVYYCAAAVLGSSKSEVDPDRPEYYYWGQGTQVTVSS” the “polyreactivity (PSR sort gate)” value was “low polyreactivity”.
In the case of “QVQLVESGGGLVQAGGSLRLSFAASGSTFKFNAMGWYRQAPGKERELVATITSRGSRTYYADSVKGRFTISRDNAKNTVYLQMNSLKPEDTAVYYCAKVSKRVGFPTAMNYWGQGTQVTVSS”, the “polyreactivity (PSR sort gate)” value was “high polyreactivity”.
For “QVQLVESGVGLVQAGGSLRLSCAASGSIFESYAMGWYRQAPGKVRELVADITYDGGITYYADSVKGRFTISRDNAKNTVYLQMNSLKPEDTAVYYCAKQYYFTFWGQGTQVTVSS”, the “polyreactivity (PSR sort gate)” value was “low polyreactivity”.
For “QVQLVESGGGLVQAGGSLRLSSAASGITFAYYAMGWYRLAPGTVRELVAAISSTGSSTYYADSVKGRFTISRDNAKNTVYLQMNSLKPEDTAVYYCAARVHYRGIVRYDYWGQGTQVTVSS”, the “polyreactivity (PSR sort gate)” value was “high polyreactivity”.
With “QVQLVESGGGLVQSGGSLRLSCAPSGRIFAGYTMGCYRQAPGKERELVAAISWSGGRTYYADSVKGRFTISRDNAKNTVYLQMNSLKPEDTAVYYCAVGFRTLHGDYGYWGQGTQVTVSS” the “polyreactivity (PSR sort gate)” value was “high polyreactivity”.
With “QVQLVESGGGLVQAGGSLRLSCAASGRTFSWYAMGWYRQAPGKERELVAAITSDGSPYYADSVKGRFTISRDNAKNTVYLQMNSLKPEDTAVYYCAADTVYRSYYWGQGTQVTVSS” the “polyreactivity (PSR sort gate)” value was “low polyreactivity”.
With “QVQLVESGGGLVQAGGSLRLSCAASGRIFWDYAMGWYRKAPGKERELVAVITFSGDSTYYADSVKGRFTISRDNAKNTVYLQMNSLKPEDTAVYYCAAARAIRQFWYVATFEYWGQGTQVTVSS” the “polyreactivity (PSR sort gate)” value was “low polyreactivity”.
In the case of “QVQLVESGGGLVQAGGSLRLSCAASGSILDIYAMGLYRQAPGKERELVAGISTSGGSTYYADSVMGRFTFSRDNAKITVYLQMNSLKPEDTAVYYCAKDYGYQGHTSTLYWAYLEYDFWGQVTQVTVSS”, the “polyreactivity (PSR sort gate)” value was “low polyreactivity”.
For “QVQLVESGGGLVQAGGSLRLSCAASGSTFCGYAMGWYRQAPGKERELVAAITNGGSTYADSVKGRFTISRDNAKNTVYLQMNSLKPEDTAVYYCNTETGPSPVPVYDTEVDSWGQRTQVTVSS”, the “polyreactivity (PSR sort gate)” value was “low polyreactivity”.
In the case of “QVHLVESGGGIVQAGGSLRLSSAATGRTFPYNAMGWYRQAPGKERELVAAISSGGSTNYADSVKGRFTISRDNAKNTVYLQMNSLKPEDTAVYYCATKYQRRPYRYYYWGQGTQVTVSS”, the “polyreactivity (PSR sort gate)” value was “low polyreactivity”.
For “QVQLVESGGGLVQAGGSLRLSCAASGSIFGYYAMGWYRQAPGKEREFVAAITWNGGSTYYADSVKGRFTISRDNAKNTVYLQMNSLKPEDTAVYYCARTSYARYRNGWTYDHWGQGTQVTVSS”, the “polyreactivity (PSR sort gate)” value was “low polyreactivity”.
With “QVQLEDSGGGLVQAGGSLRLSCAASGSIFILNTMGWYREAPGKERELVAGISYSGSTYYADSVKGRFTISRDNAKNTVYLQMNSLKPEDTAVYYCAADYGAAWYNDGYYYWGQGTQVTVSS” the “polyreactivity (PSR sort gate)” value was “low polyreactivity”.
For “QVQLEDSGGGLVQAGGSLLLSCPASGRIRYGMGWYRQAPGKERELVATITRGGSTNYADSVKGRFTISRDNAKNTVFLKMISLKPEDTAVYYCNAGSSWYYWRGYAYDYWGQGTQVSVSS”, the “polyreactivity (PSR sort gate)” value was “high polyreactivity”.
With “QVQLVESGGGLVQAGGSLRLSFAASGSIFRYYVMGWYRQAPGKERELVAAISSGGRTYYADSVKGRFTISRDNAKNTVYLQMNSLKPEDTAVYYCNAQGLFYWEMDYWGQGTQVTVSS” the “polyreactivity (PSR sort gate)” value was “high polyreactivity”.
With “QVQLVESGGGLVQAGGSLRLSCAASGFTFAFYAMGWYRQAPGKERELVAAITGSGGSTYYADSVKGRFTISRDNAKNTVYLQMNSLKPEDTAVYYCAADLVVDYEWYDYWGQGTQVTVSS” the “polyreactivity (PSR sort gate)” value was “high polyreactivity”.
In the case of “QVQLVESGGGLGQAGGSLRLSCAASGRIFDYYAMGWYRQAPGKERELVATITSGSRTYYADSVKGRFTISRDNAKNTVYLQMNSLNPEDTAVYSCAAVKRSYYKGEYNAYDYWGQGTQVTVSS”, the “polyreactivity (PSR sort gate)” value was “high polyreactivity”.
With “QVQLVESGGGLVQAGGSLRLSCAASGFTFSKYAMGWYRQAPGKERELVAAISRSAGSTYYADSVKGRFTISRDNAKNTVYLQMNSLKPEDNAVYYCARDNPRSPSGYNYWGQGSQVTVSS” the “polyreactivity (PSR sort gate)” value was “high polyreactivity”.
For “QVQLVESGGGVVQAGGSLRLSCAASGSIFRYYTRGGYRQAPGKVRELVAAISRSGGSTYYADSVKGRFTISRDNAKNTVYLQMNSLKPEDTAVYYCAARYKRAQGYREGDYWGQGTQVTVSS”, the “polyreactivity (PSR sort gate)” value was “high polyreactivity”.
In the case of “QVQLVESGGGLVQAGGSLRLSCAASGSIFFGYGMGWYRQAPGKERELVATITTSGGTYYADSVKGRFTISRDNAKNTVYLQMNSLKPEDTAVYYCNKEDYGLYPYYVSVGYDYWGQGTQVTVSS”, the “polyreactivity (PSR sort gate)” value was “low polyreactivity”.
With “QVQLVESGGGLVQAGGSLRLSCAASGRTFPYYAMGWYRQAPGKERELVAVISSADSTNYADSVKGRFTISRDNAKNTVYLQMNSLKPEDTAVYYCAADAVYYGDDYWGQCTQVTVSS” the “polyreactivity (PSR sort gate)” value was “low polyreactivity”.
In the case of “QVQLVESGGGLVQAGGSLRLSCAASGSIFGGYAMGWYRQAPGKERELVARITDRGGSTDYADSVKGRFTISRDNAKNTVYLQMNSLTPEDTAVYYCAKRGDRYEKRPRDYWGQGTQVTVSS”, the “polyreactivity (PSR sort gate)” value was “low polyreactivity”.
With “QVQLVESGGGLVQAGGSLRLSCAASGFTFFKYAMGWYRQAPGKERELVAAISSSGGSTYYADSVKGRFTISRDNAKNTVYLQMNSLKPEDSAVYYCNRPAAVYFKLVTAYDYWGQGTQVTVSS” the “polyreactivity (PSR sort gate)” value was “high polyreactivity”.
With “QVQLVESVGGLVQAVGSLRLSCAASGNTFYRYAMGWYIQAPGKERELVAAITWRSTYYADSVKGRFTISRDNAKNTVYLQMNSLKPEDTAVYYCAVSVRPYVIYLYDYWGQGTQVTVSS” the “polyreactivity (PSR sort gate)” value was “high polyreactivity”.
For “QVQLVESGGGLVQAGGSLRLSCAASGSIFPAYAMGWYRQAPGKERELVAAITFSGGSTYYADSVKGRFTISRDNAKNTVYLQMNSLKPEDTAVYYCATDSYGWRFNRAITSYGGDYWGQGTQVTVSS”, the “polyreactivity (PSR sort gate)” value was “low polyreactivity”.
In the case of “QLQLVESGGCLVQAGGSLRLSCAASGIIFVVNDMGWYRQAPGNARELVADISDSGGSTNYADSVKGRFTISRDNAKNSVYLQMNSLKPEDTAVYYCAADSADPTEYDYWGQGTQVTLSS”, the “polyreactivity (PSR sort gate)” value was “low polyreactivity”.
In the case of “QVQLVESGGGLVQAGGSLRLSCAASGFIFKYYAMGCYRQAPGKERELVAVISRSGGGTYYADSVKGRYTISRDHAKNTVYLQMNSLKTEDTAVYYCAAERSSGFDYWGQGTQVTVSS”, the “polyreactivity (PSR sort gate)” value was “high polyreactivity”.
With “QVQLVESGGGLVQAGGSLRLSSAASGRTFPHYAMGWYRQAPGKERELVAAISSSGGSTYYADSVKGRFTISRDNAKNTVYLQMNSLKPEETAVYSCAARYVDDGWKYAYWGQGTQVTVSS” the “polyreactivity (PSR sort gate)” value was “low polyreactivity”.
In the case of “QVQLVESGGGLVQAGGSLRLSCAASGSTFRFNAMGWYRQAPGKERELVAVIRWRGGTTYYADSVKGRFTISRDNAKNTVYLQMKSLKPEDTAVYYCNADYWGQGTQVTVSS”, the “polyreactivity (PSR sort gate)” value was “high polyreactivity”.
In the case of “QVQLVESGGGLVQAGGSLRLSCAASGFIFWDYAMGWYRQAPGKERELVAAISDSGGDTYYADSVKGRFTISRDNSKNTDYLQMNSLKPEDTAVYYCAADVELWVFRGQQYDYWGQGTQVTVSS”, the “polyreactivity (PSR sort gate)” value was “low polyreactivity”.
With “QVQIVESAAGLVQAGGSLRLSCAASGLTFTTYSKGWYRQAPGKERELVAAISRRGSRTYYADSVKGRFTISRDNSKNTVYLQMNSLKPEDTAVYYCNALTGSFKTYSFDYWGQGTQVTVSS” the “polyreactivity (PSR sort gate)” value was “high polyreactivity”.
In the case of “QVQLVESGGGLVQAGGSLRLSCAASGSIFRPNTMGWYRQAPGKERELVAAIRYRGGGTYYADSVKGRFTISRDNAKNTVYLQMNSLKPEDTAVYFCNAPRRNWSYDYWGQGTQVTVSS”, the “polyreactivity (PSR sort gate)” value was “high polyreactivity”.
For “QVQLVESGGGLVQAGGSLRLSCAASGITFRYYAMGWSRQAPWKERELVAVISSTGITNYADSVKGRFTISRDNAKNTVYLQMNSLKPEDTAVYYCAAGLWYSYDYWGQGTQVTVSS”, the “polyreactivity (PSR sort gate)” value was “high polyreactivity”.
With “QVQLVESGGGLVQAGGSLRLSCAASGRIFQSNVMGWYRQAPGKERELVAGISTSGGSTYYADSVKGRFTISRDYAKNTVYLQMNSLKPEDTAVYYCAKDPSAVKVPYGYPVIKKTYNSWGQGTQVTVSS” the “polyreactivity (PSR sort gate)” value was “low polyreactivity”.
With “QFQLVESGGGLVQAGGSLRLSCAASGRIYGLYAKGWYRQAPGKERELVAAISSTGGRTFYADSVKGRFTISRDNAKNTVYFQMNSLKPDDTAVYYCAAYRYSRYRQRYNYCGQGTQVTVSS” the “polyreactivity (PSR sort gate)” value was “high polyreactivity”.
In the case of “QVQLQESGGGLVLAGGSLRLSCSASGNISVYGSMGWYRQAPGKEREFVATIDPGTNTNYADSVKDRFTISRDNAKNTVYLQMNSLKPVDTAVYFCAVEAGSDWPYRYWGQGTQVTVSS”, the “polyreactivity (PSR sort gate)” value was “low polyreactivity”.
With “QVQLVESGGGLVQAGGSLRLSCAASGRIFPAYVMGWYRQAPGKERQLVATIDNGGGTYFADSVKGRFTISRDNAKNTVYLQMNRLKPVETAVYYCARDRHVRWGLNMDYWGQGTQVTVSS” the “polyreactivity (PSR sort gate)” value was “low polyreactivity”.
